Common to all, as to settings: both partners purified
The target of assay [1] is T1, human Hsp90β (human, UniProt P08238 1-724).
T1 construct: Hsp90β, human; source: E. coli BL21 (DE3), purified (HisTrap, Resource Q, Superdex size exclusion)
The experiment in a line: AUC; sedimentation velocity with fluorescence detection; 600 nM ATTO 488-labelled GRLBDm, 3 μM unlabelled chaperones and cofactors, no nucleotide; 20 mM HEPES, 20 mM KCl, 5 mM MgCl2, 50 μM dexamethasone, pH 7.5; 42,000 rpm, 20 °C.

Assay [2] deals with T1, human Hsp90β. Briefly: AUC; sedimentation velocity with fluorescence detection; 600 nM ATTO 488-labelled GRLBDm, 3 μM unlabelled chaperones and cofactors, 2 mM ATPγS; 20 mM HEPES, 20 mM KCl, 5 mM MgCl2, 50 μM dexamethasone, pH 7.5; 42,000 rpm, 20 °C.
Assay [3] deals with T2, C. elegans Hsp90 (HSP-90) (C. elegans, UniProt Q18688 1-702).
T2 construct: HSP-90 (Hsp90 homolog), C. elegans; also called nematode HSP-90; nematode Hsp90; source: E. coli BL21 (DE3), purified (HisTrap, Resource Q, Superdex size exclusion)
The experiment in a line: AUC; sedimentation velocity with fluorescence detection; 600 nM ATTO 488-labelled GRLBDm, 3 μM unlabelled chaperones and cofactors, no nucleotide; 20 mM HEPES, 20 mM KCl, 5 mM MgCl2, 50 μM dexamethasone, pH 7.5; 42,000 rpm, 20 °C.

Assay [4] addresses T2, C. elegans Hsp90 (HSP-90). The experiment in a line: AUC; sedimentation velocity with fluorescence detection; 600 nM ATTO 488-labelled GRLBDm, 3 μM unlabelled chaperones and cofactors, 2 mM ATPγS; 20 mM HEPES, 20 mM KCl, 5 mM MgCl2, 50 μM dexamethasone, pH 7.5; 42,000 rpm, 20 °C.

T1 sequence (P08238 whole entry): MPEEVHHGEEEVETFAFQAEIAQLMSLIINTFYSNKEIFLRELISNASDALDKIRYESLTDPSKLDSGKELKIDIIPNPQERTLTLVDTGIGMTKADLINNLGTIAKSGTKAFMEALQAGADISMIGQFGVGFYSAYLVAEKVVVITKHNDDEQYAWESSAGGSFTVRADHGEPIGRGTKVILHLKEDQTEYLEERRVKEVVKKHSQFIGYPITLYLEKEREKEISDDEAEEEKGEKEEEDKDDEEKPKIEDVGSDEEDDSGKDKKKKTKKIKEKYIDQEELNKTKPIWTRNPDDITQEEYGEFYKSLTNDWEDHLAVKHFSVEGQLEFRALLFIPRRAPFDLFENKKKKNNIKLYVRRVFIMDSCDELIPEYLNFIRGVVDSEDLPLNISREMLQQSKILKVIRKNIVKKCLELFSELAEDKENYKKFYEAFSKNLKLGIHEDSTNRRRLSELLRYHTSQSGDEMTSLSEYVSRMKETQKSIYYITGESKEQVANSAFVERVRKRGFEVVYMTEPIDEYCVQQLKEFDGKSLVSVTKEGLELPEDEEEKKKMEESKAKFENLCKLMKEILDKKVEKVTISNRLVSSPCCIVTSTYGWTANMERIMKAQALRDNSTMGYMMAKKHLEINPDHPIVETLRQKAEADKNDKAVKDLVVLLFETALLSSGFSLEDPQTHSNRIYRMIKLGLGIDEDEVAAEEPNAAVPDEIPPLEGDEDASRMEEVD

B1: human Fkbp51 (enzyme, UniProt Q13451 1-457, looked up)
chain: MTTDEGAKNNEESPTATVAEQGEDITSKKDRGVLKIVKRVGNGEETPMIGDKVYVHYKGKLSNGKKFDSSHDRNEPFVFSLGKGQVIKAWDIGVATMKKGEICHLLCKPEYAYGSAGSLPKIPSNATLFFEIELLDFKGEDLFEDGGIIRRTKRKGEGYSNPNEGATVEIHLEGRCGGRMFDCRDVAFTVGEGEDHDIPIGIDKALEKMQREEQCILYLGPRYGFGEAGKPKFGIEPNAELIYEVTLKSFEKAKESWEMDTKEKLEQAAIVKEKGTVYFKGGKYMQAVIQYGKIVSWLEMEYGLSEKESKASESFLLAAFLNLAMCYLKLREYTKAVECCDKALGLDSANEKGLYRRGEAQLLMNEFESAKGDFEKVLEVNPQNKAARLQISMCQKKAKEHNERDRRIYANMFKKFAEQDAKEEANKAMGKKTSEGVTNEKGTDSQAMEEEKPEGHV
notes: Fkbp51, human PPIase; source: E. coli BL21 (DE3), purified (HisTrap, Resource Q, Superdex size exclusion)
Consider B1, for which, in the assay with human Hsp90β [1], the binding result is “binds”.

B2: human Fkbp52 (enzyme, UniProt Q02790 1-459, looked up)
chain: MTAEEMKATESGAQSAPLPMEGVDISPKQDEGVLKVIKREGTGTEMPMIGDRVFVHYTGWLLDGTKFDSSLDRKDKFSFDLGKGEVIKAWDIAIATMKVGEVCHITCKPEYAYGSAGSPPKIPPNATLVFEVELFEFKGEDLTEEEDGGIIRRIQTRGEGYAKPNEGAIVEVALEGYYKDKLFDQRELRFEIGEGENLDLPYGLERAIQRMEKGEHSIVYLKPSYAFGSVGKEKFQIPPNAELKYELHLKSFEKAKESWEMNSEEKLEQSTIVKERGTVYFKEGKYKQALLQYKKIVSWLEYESSFSNEEAQKAQALRLASHLNLAMCHLKLQAFSAAIESCNKALELDSNNEKGLFRRGEAHLAVNDFELARADFQKVLQLYPNNKAAKTQLAVCQQRIRRQLAREKKLYANMFERLAEEENKAKAEASSGDHPTDTEMKEEQKSNTAGSQSQVETEA
notes: Fkbp52, human PPIase; source: E. coli BL21 (DE3), purified (HisTrap, Resource Q, Superdex size exclusion)
For B2, in the assay with human Hsp90β [1], the binding result is “binds”.

B3: human protein phosphatase Pp5 (enzyme, UniProt P53041 1-499, looked up)
chain: MAMAEGERTECAEPPRDEPPADGALKRAEELKTQANDYFKAKDYENAIKFYSQAIELNPSNAIYYGNRSLAYLRTECYGYALGDATRAIELDKKYIKGYYRRAASNMALGKFRAALRDYETVVKVKPHDKDAKMKYQECNKIVKQKAFERAIAGDEHKRSVVDSLDIESMTIEDEYSGPKLEDGKVTISFMKELMQWYKDQKKLHRKCAYQILVQVKEVLSKLSTLVETTLKETEKITVCGDTHGQFYDLLNIFELNGLPSETNPYIFNGDFVDRGSFSVEVILTLFGFKLLYPDHFHLLRGNHETDNMNQIYGFEGEVKAKYTAQMYELFSEVFEWLPLAQCINGKVLIMHGGLFSEDGVTLDDIRKIERNRQPPDSGPMCDLLWSDPQPQNGRSISKRGVSCQFGPDVTKAFLEENNLDYIIRSHEVKAEGYEVAHGGRCVTVFSAPNYCDQMGNKASYIHLQGSDLRPQFHQFTAVPHPNVKPMAYANTLLQLGMM
notes: Pp5 (serine/threonine protein phosphatase 5), human; source: E. coli BL21 (DE3), purified (HisTrap, Resource Q, Superdex size exclusion)
For B3, the binding result in the assay with human Hsp90β [1] is “binds”.

B4: human p23 (natural protein, UniProt Q15185 1-160, looked up)
chain: MQPASAKWYDRRDYVFIEFCVEDSKDVNVNFEKSKLTFSCLGGSDNFKHLNEIDLFHCIDPNDSKHKRTDRSILCCLRKGESGQSWPRLTKERAKLNWLSVDFNNWKDWEDDSDEDMSNFDRFSEMMNNMGGDEDVDLPEVDGADDDSQDSDDEKMPDLE
notes: p23 co-chaperone, human; source: E. coli BL21 (DE3), purified (HisTrap, Resource Q, Superdex size exclusion)
B4: in the assay with human Hsp90β [2], the binding result was “binds”.

B5: STI-1, nematode TPR cofactor of HSP-90 (homolog of human Hop) (natural protein, C. elegans, UniProt O16259 1-320, looked up)
chain: MTDAAIAEKDLGNAAYKQKDFEKAHVHYDKAIELDPSNITFYNNKAAVYFEEKKFAECVQFCEKAVEVGRETRADYKLIAKAMSRAGNAFQKQNDLSLAVQWFHRSLSEFRDPELVKKVKELEKQLKAAERLAYINPELAQEEKNKGNEYFKKGDYPTAMRHYNEAVKRDPENAILYSNRAACLTKLMEFQRALDDCDTCIRLDSKFIKGYIRKAACLVAMREWSKAQRAYEDALQVDPSNEEAREGVRNCLRSNDEDPEKAKERSLADPEVQEILRDPGMRMILEQMSNDPGAVREHLKNPEIFQKLMKLRDAGVIQMR
notes: STI-1, C. elegans; source: E. coli BL21 (DE3), purified (HisTrap, Resource Q, Superdex size exclusion)
Consider B5, for which, in assay [3], the binding result is recorded as “binds”.

B6: FKB-6, nematode large prolyl isomerase (FK1, FK2 and TPR domains) (enzyme, C. elegans, UniProt O45418 1-431, looked up)
chain: MSGEKIDITPKKDGGVLKLIKKEGQGVVKPTTGTTVKVHYVGTLENGTKFDSSRDRGDQFSFNLGRGNVIKGWDLGVATMTKGEVAEFTIRSDYGYGDAGSPPKIPGGATLIFEVELFEWSAEDISPDRDGTILRTIIVEGSKNSFPNDTSKVLAHCVGTYQGTEFYNREVNFHIGEGSEEGLPEGVERALRRFQLGEKSKIEIRGHKYTYGNSPPAGSNIPVNATLEFTIFLKEFEKVPATWEMTAEEKLDAAKQAKDRGTMYLQKGNLKLAYNKYKRAEEVLEYEKSTDPEKMAERETILNGAYLNLSLVCSKQNEQLECIKWCDKVLETKPGNVKALYRKATALLTMNEVRDAMKLFEKIVEVEPENKAAAQQIIVCRNTIREQNERDKKRFKNLFAKISTEEDKPTNTVEDEDEIVASTSGSSTSNA
notes: FKB-6, peptidyl prolyl isomerase with FK1, FK2 and C-terminal TPR region, C. elegans; source: E. coli BL21 (DE3), purified (HisTrap, Resource Q, Superdex size exclusion)
In the case of B6, in assay [4], the binding result was “binds”.

B7: PPH-5, nematode protein phosphatase, homolog of human Pp5 (enzyme, C. elegans, UniProt Q9NES8 1-496, looked up)
chain: MAATITDDIVATVLESIEEKSYEDEKEKAGMIKDEANQFFKDQVYDVAADLYSVAIEIHPTAVLYGNRAQAYLKKELYGSALEDADNAIAIDPSYVKGFYRRATANMALGRFKKALTDYQAVVKVCPNDKDARAKFDECSKIVRRQKFEAAISTDHDKKTVAETLDINAMAIEDSYDGPRLEDKITKEFVLQLIKTFKNQQKLHKKYAFKMLLEFYNYVKSLPTMVEITVPTGKKFTICGDVHGQFYDLCNIFEINGYPSETNPYLFNGDFVDRGSFSVETIFTMIGFKLLYPNHFFMSRGNHESDVMNKMYGFEGEVKAKYTQQMCDMFTETFCWLPLCHLINEKIFVCHGGLFKEDGVTLEDIRKTDRNRQPPDEGIMCDLLWSDPQPINGRSPSKRGVGCQFGPDVTSKWCETNGIEYVVRSHEVKPEGYEMHHNGQCFTVFSAPNYCDQMNNKGAFITITGDNLTPRFTPFDAVPHPKLPPMAYANSLFGFN
notes: PPH-5, TPR-containing serine/threonine phosphatase, C. elegans; source: E. coli BL21 (DE3), purified (HisTrap, Resource Q, Superdex size exclusion)
As for B7, the binding result in assay [4] is “binds”.

Source of the values: paper PMC7329908, “Glucocorticoid receptor complexes form cooperatively with the Hsp90 co-chaperones Pp5 and FKBPs” (Scientific Reports, 2020).
